Series [1] can be described thus: Solubility study of propofol: minimum conjugate concentration required to solubilize propofol. In kind it is physicochemical. The settings on record: 1% (w/v) propofol in saline based solution. An excerpt:
Table 15 listed the minimum concentration of the conjugates required to solubilize propofol as a solubility test reference.

The nature of series [2]: Solubility study of voriconazole: minimum polymer to drug ratio required to solubilize voriconazole. Conditions: 1% (w/v) voriconazole in saline based solution.
Method: 1% (w/v) of voricazole was prepared in a saline based solution with different PEG-carbohydrate conjugates.

Turning to “Cholecalciferol-diethylene-triamineisomal-totriose-mPEG11”, the “Concentration (minimum concentration of the conjugate required to solubilize propofol)” value in series [1] is 2.2 % w/v.
As to “N,N,N-oleoyl-lactobionoyl-mPEG(12)propanediamine”, in series [2], the “Polymer concentration needed to solubilize voriconazole, comparison in words” value was “much high concentration” and the “Solubilizing Voriconazole (min. polymer to drug ratio)” value is reported as 20.
Regarding “Cholesterytriethylenetetraminelactobionate-di-mPEG11”, the “Concentration (minimum concentration of the conjugate required to solubilize propofol)” value in series [1] amounted to 1.6 % w/v.
Regarding “Cholesterypropanediamineascorbate-mPEG11”, the “Concentration (minimum concentration of the conjugate required to solubilize propofol)” value in series [1] amounted to 4.6 % w/v.
On to “Cholesterypropanediamineisomaltotriose-mPEG11”, for which the “Concentration (minimum concentration of the conjugate required to solubilize propofol)” value in series [1] is 2.0 % w/v.
Regarding “Cholesterypropanediaminegluconate-mPEG11”, in series [1], the “Concentration (minimum concentration of the conjugate required to solubilize propofol)” value is given as 5.3 % w/v and the “Conjugate concentration needed to solubilize propofol, comparison in words” value is “much high conjugate concentration was required”.
Take “Tocopherylpropanediaminelactobionate-mPEG11”: in series [1], the “Concentration (minimum concentration of the conjugate required to solubilize propofol)” value was 3.3 % w/v and the “Conjugate concentration needed to solubilize propofol, comparison in words” value is “the lowest molar concentration”.
Regarding “Retinoylpropanediaminelactobionate-mPEG11”, the “Concentration (minimum concentration of the conjugate required to solubilize propofol)” value in series [1] worked out at 2.9 % w/v.
Still for that read-out and setting: the result for “Cholesterypropanediaminelactobionate-mPEG11” reads 3.2 % w/v.

The values are drawn from patent publication US10835608B2, “Polymer-carbohydrate conjugates for drug delivery technology” (priority 2013, dated 2020).
